Data taken from US20220372490A1.

Tests used:
[1] = molecular target: the mutants (p53 mutants in whole cell lysates of SKBR3, MDA-MB-231, MDA-MB-468 and HCC70, as a group); experiment: cell-based or functional assay
[2] = molecular target: p53^WT, p53^R175H, p53^R248Q, p53^R273H and p53^R280K (His-tagged recombinant proteins, as a group); experiment: ELISA, His-tagged recombinant proteins
[3] = molecular target: p53WT and the mutants (p53 in whole cell lysates of CAL-51, SKBR3, MDA-MB-231, MDA-MB-468 and HCC70, as a group); experiment: IP of all p53 with excess antibody, WB of PEPD in the precipitate against input

B1: PEPD in human breast cancer cells (endogenous, in cell lysates, cytosol or nuclear extracts), P12955 2-493 (enzyme, UniProt P12955 2-493, looked up)
chain: AAATGPSFWLGNETLKVPLALFALNRQRLCERLRKNPAVQAGSIVVLQGGEETQRYCTDTGVLFRQESFFHWAFGVTEPGCYGVIDVDTGKSTLFVPRLPASHATWMGKIHSKEHFKEKYAVDDVQYVDEIASVLTSQKPSVLLTLRGVNTDSGSVCREASFDGISKFEVNNTILHPEIVECRVFKTDMELEVLRYTNKISSEAHREVMKAVKVGMKEYELESLFEHYCYSRGGMRHSSYTCICGSGENSAVLHYGHAGAPNDRTIQNGDMCLFDMGGEYYCFASDITCSFPANGKFTADQKAVYEAVLRSSRAVMGAMKPGVWWPDMHRLADRIHLEELAHMGILSGSVDAMVQAHLGAVFMPHGLGHFLGIDVHDVGGYPEGVERIDEPGLRSLRTARHLQPGMVLTVEPGIYFIDHLLDEALADPARASFLNREVLQRFRGFGGVRIEEDVVVTDSGIELLTCVPRTVEEIEACMAGCDKAFTPFSGPK
With B1 the cells killed by PEPD siRNA after 72 h (trypan blue assay), cells without PEPD^G278D [1] was 65 to 79%.

B2: His-tagged recombinant human PEPD (prolidase, peptidase D) (enzyme, UniProt P12955 1-493, looked up)
chain: MAAATGPSFWLGNETLKVPLALFALNRQRLCERLRKNPAVQAGSIVVLQGGEETQRYCTDTGVLFRQESFFHWAFGVTEPGCYGVIDVDTGKSTLFVPRLPASHATWMGKIHSKEHFKEKYAVDDVQYVDEIASVLTSQKPSVLLTLRGVNTDSGSVCREASFDGISKFEVNNTILHPEIVECRVFKTDMELEVLRYTNKISSEAHREVMKAVKVGMKEYELESLFEHYCYSRGGMRHSSYTCICGSGENSAVLHYGHAGAPNDRTIQNGDMCLFDMGGEYYCFASDITCSFPANGKFTADQKAVYEAVLRSSRAVMGAMKPGVWWPDMHRLADRIHLEELAHMGILSGSVDAMVQAHLGAVFMPHGLGHFLGIDVHDVGGYPEGVERIDEPGLRSLRTARHLQPGMVLTVEPGIYFIDHLLDEALADPARASFLNREVLQRFRGFGGVRIEEDVVVTDSGIELLTCVPRTVEEIEACMAGCDKAFTPFSGPK
B2 gave a Kd [2] of 145 to 185 nM.

B3: PEPD in human breast cancer cells (endogenous, in cell lysates, cytosol or nuclear extracts) (enzyme, UniProt P12955 2-493, looked up)
chain: AAATGPSFWLGNETLKVPLALFALNRQRLCERLRKNPAVQAGSIVVLQGGEETQRYCTDTGVLFRQESFFHWAFGVTEPGCYGVIDVDTGKSTLFVPRLPASHATWMGKIHSKEHFKEKYAVDDVQYVDEIASVLTSQKPSVLLTLRGVNTDSGSVCREASFDGISKFEVNNTILHPEIVECRVFKTDMELEVLRYTNKISSEAHREVMKAVKVGMKEYELESLFEHYCYSRGGMRHSSYTCICGSGENSAVLHYGHAGAPNDRTIQNGDMCLFDMGGEYYCFASDITCSFPANGKFTADQKAVYEAVLRSSRAVMGAMKPGVWWPDMHRLADRIHLEELAHMGILSGSVDAMVQAHLGAVFMPHGLGHFLGIDVHDVGGYPEGVERIDEPGLRSLRTARHLQPGMVLTVEPGIYFIDHLLDEALADPARASFLNREVLQRFRGFGGVRIEEDVVVTDSGIELLTCVPRTVEEIEACMAGCDKAFTPFSGPK
For B3, the percent of PEPD that binds to p53 [3] was 6 to 9%.
